In publication PMC9499943 (Nature Communications, 2022):

What was measured:
Test in all cases: BLI
Conditions in all cases: both partners purified
[1] = biological target: His-tagged RBD (RBD-His) protein of SARS-CoV-2 (SARS-CoV-2, wild type (Wuhan-Hu-1 …, UniProt P0DTC2))
[2] = biological target: Fc-tagged wild-type RBD (RBD-Fc) (SARS-CoV-2, UniProt P0DTC2)
[3] = biological target: His-tagged RBD (RBD-His) protein of SARS-CoV-2 (SARS-CoV-2, wild type (Wuhan-Hu-1 …, UniProt P0DTC2)); remark: listed apart in the source

| Binder | Kd [1] | koff [1] | kon [1] | IC50 [2] | other [3] |
| --- | --- | --- | --- | --- | --- |
| CoV2-06 (antibody, V domains shown) VH: QVELQESGPGLVKPSGTLSLTCAVSGGSISSNNWWTWVRQPPGKGLEWIGEIHHSGGTNYNPSLKSRVTMSVDKSKNQFSLNLYSVTAADTAVYYCTRDRAGGTYSGFDFWGQGTLVTVSS VL: QAVVTQPASVSGSPGQSITISCTGTSSDVGGYNYVSWYQQHPGKAPKLMIYDVSNRPSGVSNRFSGSKSGNTASLTISGLQAEDEADYYCSSYTSSSTVVFGGGTKVTVL [CoV2-06, listing 1 of 2 here] | 4.14 nM | 0.000695 s⁻¹ | 168000 M⁻¹ s⁻¹ |  |  |
| CoV2-06 (antibody, V domains shown) VH: QVELQESGPGLVKPSGTLSLTCAVSGGSISSNNWWTWVRQPPGKGLEWIGEIHHSGGTNYNPSLKSRVTMSVDKSKNQFSLNLYSVTAADTAVYYCTRDRAGGTYSGFDFWGQGTLVTVSS VL: QAVVTQPASVSGSPGQSITISCTGTSSDVGGYNYVSWYQQHPGKAPKLMIYDVSNRPSGVSNRFSGSKSGNTASLTISGLQAEDEADYYCSSYTSSSTVVFGGGTKVTVL [CoV2-06, listing 2 of 2 here] |  |  |  | 39.8 nM | 46 fold |
| CoV2-14 (antibody, V domains shown) VH: EVQLQQSGPGLVKPSQTLSLTCAISGDSVSSNSAAWNWIRQSPSRGLEWLGRTYYRSKWYNDYAVSVKSRITINPDTSKNQFSLQLNSVTPEDTAVYYCAREEQQLVHDYYYYGMDVWGQGTMVTVSS VL: QAVVTQPASVSGSPGQSITISCTGTSSDIGAYNYISWYQQHPGKAPKLIIYEVSNRPSGISYRFSGSKSGNTASLTISGLQAEDEANYYCSSYAGSISFGGGTKVTVL [CoV2-14, listing 1 of 2 here] | 1.18 nM | 0.000895 s⁻¹ | 761000 M⁻¹ s⁻¹ |  |  |
| CoV2-14 (antibody, V domains shown) VH: EVQLQQSGPGLVKPSQTLSLTCAISGDSVSSNSAAWNWIRQSPSRGLEWLGRTYYRSKWYNDYAVSVKSRITINPDTSKNQFSLQLNSVTPEDTAVYYCAREEQQLVHDYYYYGMDVWGQGTMVTVSS VL: QAVVTQPASVSGSPGQSITISCTGTSSDIGAYNYISWYQQHPGKAPKLIIYEVSNRPSGISYRFSGSKSGNTASLTISGLQAEDEANYYCSSYAGSISFGGGTKVTVL [CoV2-14, listing 2 of 2 here] |  |  |  | 10.6 nM | 2 fold |
